Among the data in patent US20110143993A1, “ENDOTHELIAL BASEMENT MEMBRANE TARGETING PEPTIDE LIGANDS” (The Brigham and Women's Hospital, Inc., priority 2009, published 2011) are fold binding compared to the library (R0), phage titer and IC50 values, retold here.

For test [1], the target named is human collagen IV (human) (UniProt P02462). Kind of test: phage titer count of eluted phage, input 10^12/mL p.f.u., against random library R0, n=3.
Test [2] deals with Matrigel growth factor reduced LDEV free (basement membrane extract rich in collagen IV and laminin). In words: competition ELISA: synthetic peptide (10^-5-10^-10 M) against 10^9 pfu cognate phage clone on Matrigel-coated plate, anti-M13/ABTS. In general terms: An ELISA detects its analyte on a solid surface through an enzyme-linked reagent.
Test [3] has the same target. In words: competition of phage-displayed peptide against synthetic peptide on Matrigel.

No end group written: not given here.

In the case of KLWVLPK (peptide, not shown: large carriers) [phage clone C-11 (KLWVLPK displayed on pIII of M13 phage)], the fold binding compared to the library (R0), phage titer in test [1] came out at 900 fold. Take KIWKLPQGGGC-NH2 [synthetic peptide modeled after phage clone C-10 (KIWKLPQ with C-terminal GGGC linker, amidated)]: in test [2], the concentration for half-maximal inhibition (IC50) (as a rule, the midpoint of a concentration-inhibition curve) came out at 917 nM. For the molecule KLWVLPKGGGC-NH2 [synthetic peptide modeled after phage clone C-11 (…-Am)], the IC50 in test [2] came out at 117 nM; in test [3] it was 114 nM.

Turning to KVWSLPQGGGC-NH2 [synthetic peptide modeled after phage clone A-8 (KVWSLPQ with C-terminal GGGC linker, amidated)], the IC50 in test [2] was 1200 nM. This counts as single-digit micromolar. Still for that read-out and setting: the value for KIFVWPYGGGC-NH2 [synthetic peptide modeled after phage clone A-9 (KIFVWPY with C-terminal GGGC linker, amidated)] was 551 nM.
